Nine compounds from US10357573B2, “Block copolymer conjugate of physiologically active substance” (Nippon Kayaku Kabushiki Kaisha, priority 2015, dated 2019) can be followed below.

The nature of data set [1]: Light scattering intensity of 1 mg/mL aqueous solution, relative to toluene. The class given is physicochemical. Particulars: for relative ratio between the light scattering intensity and the light scattering intensity of toluene: 1 mg/mL aqueous solution vs standard toluene solution under the same conditions; for light scattering intensity of a 1 mg/mL aqueous solution: 1 mg/mL in ultrapure water, 25° C., wavelength 632.8 nm. As to the method:
Regarding the measurement sample for the scattering intensity measurement, a solution obtained by adding ultrapure water to a physiologically active substance-conjugated block copolymer to obtain a concentration of 1 mg/mL, dissolving the block copolymer by irradiating the mixture with ultrasonic waves for 10 minutes under ice cooling, and then filtering the solution through a 0.2-μm membrane filter, was used.
Toluene (manufactured by Junsei Chemical Co., Ltd., special grade) that was used for the measurement of the light scattering intensity, was used after being filtered three times through a 0.2-μm membrane filter.

Data set [2] in a line: Volume average particle diameter by dynamic light scattering. The class given is physicochemical. The settings on record: device A, 1 mg/mL. As to the method: Measurement of the volume average particle diameters of the physiologically active substance-conjugated block copolymers of Examples and Comparative Examples was carried out using a ZetaPotential/Particlesizer NICOMP 380 ZLS (device A; temperature: 25° C.) manufactured by Particle Sizing Systems, LLC, or a particle size zeta potential analyzer, ZETASIZER NANO ZS (device B; measurement temperature: 25° C., analysis model: General Purpose (normal resolution), material RI: 1.59) manufactured by Malvern Instruments, Ltd. Regarding the volume average particle diameter measurement sample, a solution obtained by adding ultrapure water to a physiologically active substance-conjugated block copolymer to obtain a concentration of 1 mg/mL or 5 mg/mL, dissolving the block copolymer by irradiating the mixture with ultrasonic waves for 10 minutes under ice cooling, and then filtering the solution through a 0.2-μm membrane filter, was used.

The nature of data set [3]: Test Example A-4 hematotoxicity test in non-tumor bearing rat. Particulars: 40 mg/kg as converted to 7-ethyl-10-hydroxycamptothecin; for prolonged hematotoxicity: 7 days after administration; for Number of blood reticulocytes: iv once, 7th day after administration. The class given is in vivo, Sprague-Dawley rats. An excerpt: The resultant solutions were used as analysis samples.

Data set [4] deals with human stomach cancer SC-4-JCK. Nature of the data set: Test Example A-5 antitumor effect in human stomach cancer-transplanted nude mouse. Particulars: 12 mg/kg as converted to 7-ethyl-10-hydroxycamptothecin, iv once; for Relative tumor volume: 14th day after administration, day of administration = 1.0, average ± SD. Type of data set: in vivo.
Method: A tumor mass of human stomach cancer SC-4-JCK that had been subcutaneously subcultured in a nude mouse was cut into a block having a size of about 3 mm on each side, and this block was subcutaneously transplanted on the dorsal side of a nude mouse using a trocar.
A relative tumor volume was determined from the tumor volumes obtained on the day of administration and on the 14th day after the administration, and this was employed as an index for the antitumor effect. The tumor volume was determined by measuring the major axis (L: mm) and the minor axis (W: mm) of the tumor, and calculating the volume by the calculation formula: (L×W^2)/2.
Data set [5] can be described thus: Test Example A-3 hepatotoxicity test in non-tumor bearing mouse. Type of data set: in vivo, Crl:CD1(ICR)(ICR(IGS)) mice. Further details: ALT: unit not given here. The settings on record: for ALT: iv once, blood plasma 3 days after administration; for hepatotoxicity: maximum tolerated dose iv once, 3 days after administration. As to the method: The blood plasma obtained by centrifuging the blood thus collected (4° C., 1600×g, 10 minutes) was used as a measurement sample, and a blood chemical examination of the measurement sample was performed using an automatic biochemical analysis apparatus Model 7180 (Hitachi High Technologies Corp.).

How the values of data set [6] were obtained:
As a control group, a 5% glucose injection solution was intravenously administered once through the caudal vein.
Polysorbate 80 was added thereto in an amount equal to the amount of anhydrous ethanol, and the mixture was sufficiently mixed. This was used as a preparation stock solution.
After 3, 5, 7, 11, and 14 days from the day of administration of the various compounds, blood was collected through the subclavian vein without anesthesia using a 1-mL disposable syringe with a 26 G needle. About 3 μL of an EDTA-2K solution had been added in advance to the syringe, and this solution was sufficiently mixed with the blood thus collected. The resultant solutions were used as analysis samples. The blood samples were subjected to a blood cell analysis using a blood cell analysis apparatus XT-2000iV (Sysmex Corp.).

Data set [7] has as its system human pancreatic cancer BxPC3. Nature of the data set: Test Example C-3 antitumor effect test in human pancreatic cancer-transplanted nude mouse. The settings on record: for Relative tumor volume: iv once, 8th day after administration, day of administration = 1.0, average ± SD; for antitumor effect: compared to cabazitaxel 30 mg/kg. Type of data set: in vivo. On the procedure: A tumor mass of human pancreatic cancer BxPC3 that had been subcutaneously subcultured in a nude mouse was cut into a block having a size of about 3 mm on each side, and this block was subcutaneously transplanted on the dorsal side of a nude mouse using a trocar.
A relative tumor volume was determined from the tumor volumes obtained on the day of administration and on the 8th day after the administration, and this was employed as an index for the antitumor effect. The tumor volume was determined by measuring the major axis (L: mm) and the minor axis (W: mm) of the tumor, and calculating the volume by the calculation formula: (L×W^2)/2.

Data set [8] deals with human lung cancer H460. Nature of the data set: Test Example C-4 antitumor effect test in human lung cancer-transplanted nude mouse. Type of data set: in vivo. The settings on record: for Relative tumor volume: iv once, 15th day after administration, day of administration = 1.0, average ± SD; for antitumor effect: compared to cabazitaxel 30 mg/kg. As to the method: A tumor mass of human lung cancer H460 that had been subcutaneously subcultured in a nude mouse was cut into a block having a size of about 3 mm on each side, and this block was subcutaneously transplanted on the dorsal side of a nude mouse using a trocar.
A relative tumor volume was determined from the tumor volumes obtained on the day of administration and on the 15th day after the administration, and this was employed as an index for the antitumor effect. The tumor volume was determined by measuring the major axis (L: mm) and the minor axis (W: mm) of the tumor, and calculating the volume by the calculation formula: (L×W^2)/2.

The nature of data set [9]: Maximum tolerated dose / maximum non-lethal dose, single intravenous administration. Type of data set: in vivo, mice. The settings on record: iv once through the caudal vein; for maximum tolerated dose: as converted to cabazitaxel.
Where [10] appears, read: dose 100 mg/kg as converted to 7-ethyl-10-hydroxycamptothecin (maximum tolerated dose).
Where [11] appears, read: 60 mg/kg as converted to cabazitaxel.

Like-named read-outs stand apart in the source and are kept apart here.

“7-ethyl-10-Hydroxycamptothecin (EHC) Conjugate of polyethylene glycol (5 Kilodaltons)-polyglutamic Acid (10.0 Polymer) Block Copolymer [Example A-3]”: in data set [1], the “relative ratio between the light scattering intensity and the light scattering intensity of toluene” value came to 3.0 times; the “light scattering intensity of a 1 mg/mL aqueous solution” value is recorded as 16,750 cps. The “volume average particle diameter” value in data set [2] was 8 nm. Moreover, in [3], the “prolonged hematotoxicity” value was “prolonged hematotoxicity was not recognized” and the “Number of blood reticulocytes” value is 54.29 ± 8.49 ×10^4/μL. In [4], the “antitumor effect” value is recorded as “stronger antitumor effect compared to the Comparative Examples” and the Relative tumor volume amounted to 1.574 ± 0.388.
For the compound “7-ethyl-10-hydroxycamptothecin (EHC) Conjugate of polyethylene glycol (2 Kilodaltons)-polyglutamic Acid (7.6 Polymer) Block Copolymer [Example A-1]”, in data set [1], the “relative ratio between the light scattering intensity and the light scattering intensity of toluene” value is listed as 3.1 times; the “light scattering intensity of a 1 mg/mL aqueous solution” value was 17,070 cps. The “volume average particle diameter” value in data set [2] amounted to 6 nm. For the same compound, the ALT in [5] (setting [10]) is on record as 64 ± 25. Moreover, the “hepatotoxicity” value in [5] is “hepatotoxicity was negligible”. Further, in data set [3], the “prolonged hematotoxicity” value was “prolonged hematotoxicity was not recognized” and the “Number of blood reticulocytes” value was 64.18 ± 4.43 ×10^4/μL. For the same compound, the Relative tumor volume in data set [4] is listed as 2.466 ± 0.398.
As for “7-ethyl-10-hydroxycamptothecin (EHC) Conjugate of polyethylene glycol (2 Kilodaltons)-polyglutamic Acid (10.0 Polymer) Block Copolymer [Example A-2]”, in [1], the “relative ratio between the light scattering intensity and the light scattering intensity of toluene” value is reported as 4.9 times; the “light scattering intensity of a 1 mg/mL aqueous solution” value was 27,149 cps. In addition, the “volume average particle diameter” value in data set [2] is 10 nm. The compound also came in with an ALT in data set [5] (setting [10]) of 55 ± 54. The “hepatotoxicity” value in data set [5] is on record as “hepatotoxicity was negligible”. In data set [4], this compound returned a Relative tumor volume of 2.593 ± 0.482.
In the case of “7-ethyl-10-hydroxycamptothecin (EHC) Conjugate of polyethylene glycol (3 Kilodaltons)-polyglutamic Acid (6.6 Polymer) Block Copolymer [Comparative Example A-2, reference compound]”, in [1], the “relative ratio between the light scattering intensity and the light scattering intensity of toluene” value was found to be 1.80 times; the “light scattering intensity of a 1 mg/mL aqueous solution” value was 9,964 cps; the “self-association in aqueous solution” value is “non-associating”. Further, the ALT in [5] (setting [10]) is 528 ± 681. In addition, the “hepatotoxicity” value in data set [5] is reported as “occurrence of hepatotoxicity was acknowledged”. In [3], the “Number of blood reticulocytes” value is listed as 66.17 ± 7.74 ×10^4/μL. For the same compound, the Relative tumor volume in data set [4] was 2.426 ± 1.122.
As for “7-ethyl-10-hydroxycamptothecin (EHC) Conjugate of polyethylene glycol (12 Kilodaltons)-polyglutamic Acid (7.5 Polymer) Block Copolymer [Comparative Example A-3]”, in data set [1], the “relative ratio between the light scattering intensity and the light scattering intensity of toluene” value came to 1.0 times; the “light scattering intensity of a 1 mg/mL aqueous solution” value is 5,625 cps; the “self-association in aqueous solution” value was “non-associating”. The ALT in data set [5] (dose 50 mg/kg as converted to 7-ethyl-10-hydroxycamptothecin (maximum tolerated dose)) worked out at 114 ± 68. For the same compound, the “hepatotoxicity” value in [5] is recorded as “hepatotoxicity was clearly manifested”.
For the compound “7-ethyl-10-hydroxycamptothecin (EHC) Conjugate of polyethylene glycol (12 Kilodaltons)-polyglutamic Acid (25 Polymer) Block Copolymer [Comparative Example A-1, reference compound]”, in data set [1], the “relative ratio between the light scattering intensity and the light scattering intensity of toluene” value is listed as 7.5 times; the “light scattering intensity of a 1 mg/mL aqueous solution” value is 41,321 cps. Further, the “volume average particle diameter” value in data set [2] came to 20 nm. In addition, in data set [3], the “prolonged hematotoxicity” value was “prolonged hematotoxicity was recognized” and the “Number of blood reticulocytes” value is reported as 20.26 ± 11.50 ×10^4/μL. This compound gave a Relative tumor volume in [4] of 2.232 ± 0.534.
As to `CO[C@H]1C(=O)[C@]2(C)[C@@H](OC)C[C@H]3OC[C@@]3(OC(C)=O)[C@H]2[C@H](OC(=O)c2ccccc2)[C@]2(O)C[C@H](OC(=O)[C@H](O)[C@@H](NC(=O)OC(C)(C)C)c3ccccc3)C(C)=C1C2(C)C` [Cabazitaxel, reference compound], the “prolonged hematotoxicity” value in data set [6] (mouse, in vivo) is recorded as “prolonged hematotoxicity was not recognized”. In addition, the Relative tumor volume in [7] (30 mg/kg) is 1.19 ± 0.21; in data set [8] (30 mg/kg) it was 1.476 ± 0.509. This compound registered a maximum non-lethal dose in data set [9] of 30 mg/kg.
As to “Cabazitaxel (CBZ) Conjugate of polyethylene glycol (5 Kilodaltons)-α-polyaspartic Acid (20.0 Polymer) Block Copolymer [Example C-2]”, in data set [7] (setting [11]), the “antitumor effect” value is on record as “stronger tumor proliferation suppressing action” and the Relative tumor volume was 0.81 ± 0.17. In data set [8] (setting [11]), the “antitumor effect” value is reported as “stronger tumor proliferation suppressing action” and the Relative tumor volume was found to be 0.800 ± 0.371. In [9], this compound came in with a maximum tolerated dose of 60 mg/kg.
Take “Cabazitaxel (CBZ) Conjugate of polyethylene glycol (12 Kilodaltons)-α,β-polyaspartic Acid (23.8 Polymer) Block Copolymer [Comparative Example C-1, reference compound]”: the “Number of blood reticulocytes” value in [6] (60 mg/kg as converted to cabazitaxel, iv once, 5th day after administration) is 18.49 ± 13.10 ×10^4/μL. The “prolonged hematotoxicity” value in [6] (5 days after administration) is “prolonged hematotoxicity was recognized”. Moreover, the “antitumor effect” value in [7] (setting [11]) and in data set [8] (setting [11]) was “stronger tumor proliferation suppressing action” throughout. Further, the values for the Relative tumor volume in data set [7] (setting [11]) and in data set [8] (setting [11]) were 0.78 ± 0.09 and 0.484 ± 0.083, respectively. Moreover, the maximum tolerated dose in [9] is listed as 60 mg/kg.
